B1: HDAC6 (parent)
chain: DLMETTQYMNEGELRVLADTYDSV

Variants of: B1
Test: protein stability index of a GFP-peptide fusion (GPS, HEK-293T) (PSI 1-6); higher = more stable
Conditions: c terminus: a fixed tail appended
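Note: lentivirally expressed fusions sorted by FACS into six bins by GFP to DsRed ratio, PSI derived from sequencing read proportions per bin multiplied by bin number.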

Variant | protein stability index
DQMETTQYMNEGELRVLADTYDSV [L2Q] | 4.68
DWMETTQYMNEGELRVLADTYDSV [L2W] | 3.31
DIMETTQYMNEGELRVLADTYDSV [L2I] | 1.55
DDMETTQYMNEGELRVLADTYDSV [L2D] | 5.2
DPMETTQYMNEGELRVLADTYDSV [L2P] | 4.8
DGMETTQYMNEGELRVLADTYDSV [L2G] | 3.22
DMMETTQYMNEGELRVLADTYDSV [L2M] | 3.77
DKMETTQYMNEGELRVLADTYDSV [L2K] | 4.96
DLMETTQFMNEGELRVLADTYDSV [Y8F] | 1.65
DLMETTQTMNEGELRVLADTYDSV [Y8T] | 4.36
DLMETTQRMNEGELRVLADTYDSV [Y8R] | 3.66
DLMETTQHMNEGELRVLADTYDSV [Y8H] | 4.78
DLMETTQDMNEGELRVLADTYDSV [Y8D] | 4.62
DLMETTQWMNEGELRVLADTYDSV [Y8W] | 1.89
DLMETTQQMNEGELRVLADTYDSV [Y8Q] | 4.22
DLMETTQEMNEGELRVLADTYDSV [Y8E] | 4.21
DLMETTQMMNEGELRVLADTYDSV [Y8M] | 4.29
DLMETTQIMNEGELRVLADTYDSV [Y8I] | 4.19
DLMETTQGMNEGELRVLADTYDSV [Y8G] | 4.5
DLMETTQKMNEGELRVLADTYDSV [Y8K] | 4.56
DLMETTQPMNEGELRVLADTYDSV [Y8P] | 5.51
DLMETTQNMNEGELRVLADTYDSV [Y8N] | 4.67
DLMETTQAMNEGELRVLADTYDSV [Y8A] | 3.88
DLMETTQCMNEGELRVLADTYDSV [Y8C] | 4.07

Variant | protein stability index
DLMETTQLMNEGELRVLADTYDSV [Y8L] | 4.27
DLMETTQSMNEGELRVLADTYDSV [Y8S] | 5.09
DLMETTKYMNEGELRVLADTYDSV [Q7K] | 2.12
DLMETTYYMNEGELRVLADTYDSV [Q7Y] | 2.52
DLMETTGYMNEGELRVLADTYDSV [Q7G] | 2.05
DLMETTRYMNEGELRVLADTYDSV [Q7R] | 1.14
DLMETTNYMNEGELRVLADTYDSV [Q7N] | 2.12
DLMETTTYMNEGELRVLADTYDSV [Q7T] | 2.37
DLMETTLYMNEGELRVLADTYDSV [Q7L] | 2.12
DLMETTVYMNEGELRVLADTYDSV [Q7V] | 1.67
DLMETTEYMNEGELRVLADTYDSV [Q7E] | 1.97
DLMETTAYMNEGELRVLADTYDSV [Q7A] | 1.53
DLMETTDYMNEGELRVLADTYDSV [Q7D] | 2.35
DLMETTHYMNEGELRVLADTYDSV [Q7H] | 1.14
DLMETTPYMNEGELRVLADTYDSV [Q7P] | 3.69
DLMETTSYMNEGELRVLADTYDSV [Q7S] | 2.02
DLMETTQYKNEGELRVLADTYDSV [M9K] | 4.24
DLMETTQYQNEGELRVLADTYDSV [M9Q] | 4.92
DLMETTQYFNEGELRVLADTYDSV [M9F] | 3.44
DLMETTQYGNEGELRVLADTYDSV [M9G] | 4.71
DLMETTQYCNEGELRVLADTYDSV [M9C] | 4.25
DLMETTQYNNEGELRVLADTYDSV [M9N] | 4.12
DLMETTQYTNEGELRVLADTYDSV [M9T] | 4.82
DLMETTQYLNEGELRVLADTYDSV [M9L] | 3.84

Variant | protein stability index
DLMETTQYWNEGELRVLADTYDSV [M9W] | 3.37
DLMETTQYENEGELRVLADTYDSV [M9E] | 4.61
DLMETTQYDNEGELRVLADTYDSV [M9D] | 4.95
DLMETTQYYNEGELRVLADTYDSV [M9Y] | 4.31
DLMETTQYRNEGELRVLADTYDSV [M9R] | 4.28
DLMETTQYVNEGELRVLADTYDSV [M9V] | 3.6
DLMETTQYINEGELRVLADTYDSV [M9I] | 4.14
DLMETTQYANEGELRVLADTYDSV [M9A] | 4.57
DLMETTQYPNEGELRVLADTYDSV [M9P] | 4.55
DLMETTQYSNEGELRVLADTYDSV [M9S] | 4.68
DLMETTQYHNEGELRVLADTYDSV [M9H] | 4.55
DLWETTQYMNEGELRVLADTYDSV [M3W] | 2
DLRETTQYMNEGELRVLADTYDSV [M3R] | 3.77
DLLETTQYMNEGELRVLADTYDSV [M3L] | 1.91
DLKETTQYMNEGELRVLADTYDSV [M3K] | 4.13
DLFETTQYMNEGELRVLADTYDSV [M3F] | 2.22
DLQETTQYMNEGELRVLADTYDSV [M3Q] | 3.29
DLNETTQYMNEGELRVLADTYDSV [M3N] | 4.55
DLYETTQYMNEGELRVLADTYDSV [M3Y] | 2.74
DLDETTQYMNEGELRVLADTYDSV [M3D] | 4.6
DLTETTQYMNEGELRVLADTYDSV [M3T] | 3.15
DLAETTQYMNEGELRVLADTYDSV [M3A] | 3.05
DLPETTQYMNEGELRVLADTYDSV [M3P] | 4.65
DLCETTQYMNEGELRVLADTYDSV [M3C] | 1.69

Variant | protein stability index
DLGETTQYMNEGELRVLADTYDSV [M3G] | 3.84
DLIETTQYMNEGELRVLADTYDSV [M3I] | 2.13
DLSETTQYMNEGELRVLADTYDSV [M3S] | 3.48
DLEETTQYMNEGELRVLADTYDSV [M3E] | 3.74
DLHETTQYMNEGELRVLADTYDSV [M3H] | 3.91
DLVETTQYMNEGELRVLADTYDSV [M3V] | 2.2
KLMETTQYMNEGELRVLADTYDSV [D1K] | 2.28
MLMETTQYMNEGELRVLADTYDSV [D1M] | 1.54
ILMETTQYMNEGELRVLADTYDSV [D1I] | 3.02
QLMETTQYMNEGELRVLADTYDSV [D1Q] | 2.25
ELMETTQYMNEGELRVLADTYDSV [D1E] | 2.22
GLMETTQYMNEGELRVLADTYDSV [D1G] | 3.06
RLMETTQYMNEGELRVLADTYDSV [D1R] | 3.01
YLMETTQYMNEGELRVLADTYDSV [D1Y] | 2.04
VLMETTQYMNEGELRVLADTYDSV [D1V] | 1.25
NLMETTQYMNEGELRVLADTYDSV [D1N] | 2.18
PLMETTQYMNEGELRVLADTYDSV [D1P] | 4.29
TLMETTQYMNEGELRVLADTYDSV [D1T] | 2.27
HLMETTQYMNEGELRVLADTYDSV [D1H] | 1.53
WLMETTQYMNEGELRVLADTYDSV [D1W] | 1.55
LLMETTQYMNEGELRVLADTYDSV [D1L] | 2.05
FLMETTQYMNEGELRVLADTYDSV [D1F] | 2.46

— the supplement of paper PMC10567573
